In publication PMC8726603:

Target: SUMO-tagged CGAS (human) (UniProt Q8N884)
Experiment: SPR

Sequence of UniProt Q8N884 (Q8N884 whole entry): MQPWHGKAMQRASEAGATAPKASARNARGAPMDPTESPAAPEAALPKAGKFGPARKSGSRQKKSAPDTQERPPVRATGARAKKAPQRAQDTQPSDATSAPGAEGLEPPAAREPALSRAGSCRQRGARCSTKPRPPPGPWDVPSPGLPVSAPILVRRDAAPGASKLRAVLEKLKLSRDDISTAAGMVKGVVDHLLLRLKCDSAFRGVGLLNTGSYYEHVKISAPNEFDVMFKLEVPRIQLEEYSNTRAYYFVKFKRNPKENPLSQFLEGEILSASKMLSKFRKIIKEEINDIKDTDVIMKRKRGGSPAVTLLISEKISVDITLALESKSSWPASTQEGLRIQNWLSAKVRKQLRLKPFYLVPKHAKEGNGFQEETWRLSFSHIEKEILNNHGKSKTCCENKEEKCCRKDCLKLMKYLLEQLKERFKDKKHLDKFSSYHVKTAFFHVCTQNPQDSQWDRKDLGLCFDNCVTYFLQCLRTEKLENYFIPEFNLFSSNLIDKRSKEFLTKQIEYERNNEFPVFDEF

Kd: 170 nM
Substance: His-tagged LC3B (from UniProt Q9GZQ8 1-120) (natural protein; other documents disagree on this pair)
